The values below come from patent publication US20260103490A1.

Where no end group is shown, it is not given here. [ ]: non-standard residue; d: D form.

Experiment [1] concerns the target NbALFA^ST (NbALFA clone 1G5). Put plainly: off-rate assay: peptide elution from NbALFA^ST resin; tag position C.
Experiment [2] addresses NbALFA^ST (NbALFA clone 1G5). Put plainly: off-rate assay: peptide elution from NbALFA^ST resin; tag position N.

NbALFA^ST (NbALFA clone 1G5), sequence (VHH, as listed by the source): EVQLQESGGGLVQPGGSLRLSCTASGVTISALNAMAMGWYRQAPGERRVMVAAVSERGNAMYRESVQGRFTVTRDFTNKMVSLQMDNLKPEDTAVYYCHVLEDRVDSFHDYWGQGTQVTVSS

Consider GPSGLEQELRRRL [gp…. (SEQ ID NO: 108)], for which, in experiment [1], the t1/2 is < 2 min.

Regarding MSGLEQELRRRLTP[code s] (not fully specified; printed as MSGLEQELRRRLTPs) […s (SEQ ID NO: 110)], the t1/2 in experiment [2] was < 2 min.
